Reference: PMC9933633

Molecular target: SARS-CoV-2 Spike RBD (SARS-CoV-2, UniProt P0DTC2 319-541)
Assay: electrochemical aptasensor

B1: Spike RBD aptamer (51-base, Song et al. 2020) (structured_DNA)
DNA: CAGCACCGACCTTGTGCTTTGGGAGTGCTGGTCCAAGGGCGTTAATGGACA
modifications: 5' C6-NH2
binding result: binds
